Assay results taken from the DeepSol protein solubility set.

Assay: soluble on expression in E. coli; label from the status in PepcDB or PDB records

Soluble on expression in E. coli, not soluble:
MSEQPQQRSTEEVEAIKEDILTALETVIDPELGIDIVNLGLIYEVEFAEETGDTVIKMTLTTMGCPLADVLTEQIHGVLKDIPEVNNIEVKLVWYPAWTTDKMSRYARIALGIR
VEQSANAFLLVNCNGVVEYVNPSFTAITQYSSEEVSGNKLSELPALENLNQLLLEANSSLTSSNSWQGEFKSRRKNLEPYWGQLSISKVYGDNRELTHYIGIYEDIT
GRHLFVLEREAKLKDYLATADITRVEKGDTKFGVVTAGTCYPYLREVLPNATVLKLGASWPLPDTLLREFCASVDQVFVVEELEPIIEKEVASLGIKVEGKRLFPRAGEFSPEVVRAGFVQAGLLPAPPSYNAWVPEPVVRPPVLCAGCPHTSSFLAVRASGARVAGDIGCYTLAVLDPLRGIDTCVAMGSSIGNAIGMAKAGEAKPVVATIGDSTFLHAGLPALIDAVYNQANIAVVLLDNHITAMTGGQEH
MHFPISMAVPARFTGPLPESCDVVVIGAGVIGVMTGWYLAERGFRVTVCEKGRVAGEQSSRNWGWIRQQGRDPDELPIMVESLRLWQGLAQSLGNPFGFRQTGVLYLANREEQLSQYEGWMIHAAAQGLDTRLLGRRELAERLPGAADLWQGGLFTASDARAEPWLAVPALAAGAAERGVTILEDCAVRALDLEGGRVAGVTTERGRIRAPEVVLAGGAWSSLFARAHGVNLPQLSVLSSVAQTEPLPEILPGAAADDAFAFRRREDGGYTIAGGSEHDFFIGPDAFRHALKYRKAVKKDFLSTHYRWLAPRDYPDGWNTPRTWSKGAPTPFEAMRVLNPAPNLATLSRAAAAFGRAFPGVGRPKIRATWAGMIDTMPDVVPVIDRAPSVPGLTIATGMSGHGFGIGPGVGRVVADLVAGRPVGHDLTRFRLSRFTDGSEITLGPSL
MGSDKIHHHHHHMLEFTKRSLMNKYNINERVLELYERALNDVEKEFKYYDEIREYNQLKVLKAFQEERISESHFTNSSGYGYNDIGRDSLDRVYANIFNTESAFVRPHFVNGTHAIGAALFGNLRPNDTMMSICGMPYDTLHDIIGMDDSKKVGSLREYGVKYKMVDLKDGKVDINTVKEELKKDDSIKLIHIQRSTGYGWRKSLRIAEIAEIIKSIREVNENVIVFVDNCYGEFVEEKEPTDVGADIIAGSLIKNIGGGIATTGGYIAGKEEYVTQATFRVTVPGIGGECGSTFGVMRSLYEGLFMAPHVTIEAVKGAVFCARIMELAGFDVLPKYNDKRTDIIQAIKFNDEKKLIDFIKGIQTASPVDSFVQCEAWDMPGYEDKVIMAAGTFVQGASIELSADAPIREPYIGYLQGGLTFDHAKLGVLIALSKLIM
LSKPKLAVVGARKCSETGKQSVRKIVHELGNAFTIVSGLARGIDTCAHMEALKNKGNTIAVIGTGLDVYYPKENKALQDYMAKNHLVLTEYGPGEQPLKYHYPERNRIISGLCQGVMVVEAKLRSGSLITCERAMEEGRDVFAIPGNILDGKSDGCHHLIQEGAKCITTGFDIISEFS
MMQPLQLSAGGFAVVLGTNEIASAVAVHLHREGCCVVMSHDPFPPVIRRKMAFHDALYGDEVTVEGVRGERVDHATQIFKALRRSDNVLVSWLALPDLLPIGAVDVLIDARMQKHRVTPDLRGLARISVGLGPGFSTAVNCDVAIETRPGRSGLIVGAGWTDAADGVASPLGGVGAERFEYSQASGRWRTAVEIGSRVFSGFTIGHLGGVPVRAPCDGILRGVVRDGQDVPQGVKLLEVDSRGRHAQWTGIDDRGRGIAKAVLRAVQPQAEIRTSYAAQPIAVFLEHHHHHH
MSFEEKTFKWLMNQKFYHGYLPREDLPYVLKKKGDFIFRVTERTVGKEQKKDIVLSIAWPTESVAMIDTKDIKNYLIERSANSVWLDLKISFHSIDALYNHYRKNELVHPNLRIKLGRPICLFFWEFKHSQINLIKKVGKGAYGEVFKGTVTRGNKTFNGAIKAMRKDLDAGNEKMKEVMAEARLMRSLNHPNIVRCRGIAVLEQPVYIVIEFINGGGLDSYLKKNSQTLTMDQKNRMAISAAWGIEFMHSHDIIHRDIAARNCLYDNKNLVKLSDFGLSRKGSVYRMKKAMKMPTKWLAPESLTTFTFSGASDVYTFGVLLYEIYTCQEPYLAVKAGEAKRYILSGAFPNFTKQAPPELNEIVKKSIYQLDPAKRDTMKVIVKKLETWLDVELVLDENEKPDIDPESNRFNGNMPIRVDSSTKKMRNDTVCIPPPETATVALPNSLPPITVSARSKNSRKSTLKRKKKKTSKDSSMTTTTTNTNESEPPADGQVISSETMSVANKMVSDAKGGSPEMLTPSLEELKPSSQENETFLNEKNSTAKN
MGHHHHHHSHMVALSNALSRVFGSLAGYKFPSFIQKGINALYVKIFKIDLSEFEPLENYRSLNALFTRSLKKERPFDKSPNICIAPCDALITECAFLDNDSALQIKGMPYKAHELVGEINPLSPSFFYANFYLSPKDYHHYHAPCDLEILEARYFAGKLLPVNKPSLHKNNNLFVGNERVTLVAKDIQGNRLYFVAVGALNVGKMRFNFDKNIQTNAKARFTQTYSYNPPIKVKKGDNLGNFEMGSTIVLFIQNTAFKDLKEKNVKFGESIGEFHAN
MGSDKIHHHHHHAGELRERVYLQTDKQFYLSGELVWMKFIATDLDQRLSDVSKVGYVELLDSASAVVQARLVLEKGVGDGCLQLPSTLPTGNYRLVAYTRYMRNEGEEVFFEKPLAVVNTFVTNETLLTDTLLPAYSFTRREDPVSVSPDRMTYDTRSGGEIRINGLPPDLQTLSVSIAGIDLYKPSARSGIVDWKQSMPTTGSSPADRKFLAEYEGPILTGKVIDLSTGEPSSKEAVRPLLGFSGGEIRLFGGQLGPAGEVTFFTRHISGTHEIVTVALSPSSSRYRVDIESPYATHPEKELPALRLNPAWQDELVKRSVGLQVLHAYRSDSLVREKAEKPWFQWQPDWSYLLDEYTRFTTMEEVVIEFIPGLRFRKMDGVRRLAVLTEERIGYTIGNSLVLLDGIPITDHEIIFKYDPLKIRKIDVYKGKYVFGGQIFDGIASFSSYEHNYPGLVVDNSTQFFDYEGTQAQRIFYMPAYRTEAEKRSPVPDFRHTLLWRPDIRTNGESSISIPFTTSDLTGDFTITIEGLTQTGEALYATEQFQVK
MMKKPLLVLTALSLSLSAILSPLPATAALPLSVNGEQIPSLAPMLEKVTPAVVSIAVEGTQVSRQRLPDQFRFFFGPDFPTEQLQERPFRGLGSGVIINADKGYVVTNYHVINGAEKIRVKLYDGREFDAELVGGDEMSDVALLKLNKAKNLTEIRIADSDKLRVGDFAVAIGNPFGLGQTVTSGIVSALGRSGLNIENFENFIQTDAAINSGNSGGALVNLNGELIGINTAILGPNGGNVGIGFAIPSNMMKNLTDQILEFGEVKRGMLGVQGGEITSELADALGYESSKGAFVSQVVPDSAADKAGIKAGDIITSLNGKKIDTFSELRAKVATLGAGKTITLGVLRDGKNQNIDVTLGEQQNAKTKAESLHQGLSGAELSNTTDSDPIQGVKVTEVQKGSAAESYQLQKDDIIIGVNRKRVKNIAELRAIMEKSPNILALNIQRGERTLYLVVR
MWLKVGGLLRGTGGQLGQTVGWPCGALGPGPHRWGPCGGSWAQKFYQDGPGRGLGEEDIRRAREARPRKTPRPQLSDRSRERKVPASRISRLANFGGLAVGLGLGVLAEMAKKSMPGGRLQSEGGSGLDSSPFLSEANAERIVQTLCTVRGAALKVGQMLSIQDNSFISPQLQHIFERVRQSADFMPRWQMLRVLEEELGRDWQAKVASLEEVPFAAASIGQVHQGLLRDGTEVAVKIQYPGIAQSIQSDVQNLLAVLKMSAALPAGLFAEQSLQALQQELAWECDYRREAACAQNFRQLLANDPFFRVPAVVKELCTTRVLGMELAGGVPLDQCQGLSQDLRNQICFQLLTLCLRELFEFRFMQTDPNWANFLYDASSHQVTLLDFGASREFGTEFTDHYIEVVKAAADGDRDCVLQKSRDLKFLTGFETKAFSDAHVEAVMILGEPFATQGPYDFGSGETARRIQDLIPVLLRHRLCPPPEETYALHRKLAGAFLACAHLRAHIACRDLFQDTYHRYWASRQPDAATAGSLPTKGDSWVDPS

Soluble on expression in E. coli, soluble:
MGHHHHHHSHMPKKKTGARKKAENRREREKQLRASRSTIDLAKHPCNASMECDKCQRRQKNRAFCYFCNSVQKLPICAQCGKTKCMMKSSDCVIKHAGVYSTGLAMVGAICDFCEAWVCHGRKCLSTHACACPLTDAECVECERGVWDHGGRIFSCSFCHNFLCEDDQFEHQASCQVLEAETFKCVSCNRLGQHSCLRCKACFCDDHTRSKVFKQEKGKQPPCPKCGHETQETKDLSMSTRSLKFGRQTGGEEGDGASGYDAYWKNLSSDKYGDTSYHDEEEDEYEAEDDEEEEDEGRKDSDTESSDLFTNLNLGRTYASGYAHYEEQEN
MRAIDLNSDLGESFGAWSMGDDAAMLDIVTSANVACGFHAGDPAGILRTLKAAAAKNVTIGAHVSYPDKVGFGRRNMDVASDELTADVIYQIGSLQGLAKAAGTSVRYVKPHGALYNTIAHDRRQAMAVIEAIRAIDPALVLVALAGSTLIELARSEGLQCIAEAFADRAYTPQGTLVSRREPGAVLHDPELVAQRMLRLVQSGSIEAIDGSLVRIEADSICVHGDSPAAVEMARELRRVLEQASTSLQPFAGKRS
MDPELQCIRECRLAQLKNNSGGTNGDRNSGANNGGGENSAPVGAAIANFLEPQALERLSRVALVRRDRAQAVETYLKKLIATNNVTHKITEAEIVSILNGIAKQQNSQNNSKIIFEAAALEHHHHHH
MSSKSTKRAKIEDPKDNVFMVEKVLDKRTGKAGRDEFLIQWQGFPESDSSWEPRENLQCVEMLDEFEREFSKREKPIRKRHSQKPEPSEDQADPEEDKDEKKETNQNDKFSLEGKQLKCIVGLTKGPGELHFLCKFSDDTARLLPAKEVNSRYRPFVDAYGEFLKKKMERRHKRISEGKKKRSIEEDDADDEWPEMPPGHRILTTEEHELQRRKESKISQDVEMTEAFQQTAADMLNDMHMAANGDLLSSFPQDFLEDSGDGEVHEAAILSVFDDNSNSPPPCPIVVDTVPDDDDSLLFPRNS
MSLIGETINKLKVIKESSKRDKSRCKMYECLCECGEVIIVRSSTLRQGKIKSCGCESNKIHSELMRERNTTHGLSSNPMYQRWLGMKQRCYDVNAINYKNYGGRGIEICEEWKNDFKKFYDYMGDPPNENYQIDRINNDGNYEPGNVKWSTRSENSTNIRKKEGHHHHHH
MSLDHPPLCVLLVDDDSLVLDSTTLLLEDLGHRVIRAASGAQALQCLEQHRDIQLMISDMAMPHMDGRQLAEAVRRLHPQLPIILASGYAQRQDGPVPELPRIFKPFSQAQLRDALAQVLAQSAEGHHHHHH
QVINTFDGVADYLQTYHKLPDNYITKSEAQALGWVASKGNLADVAPGKSIGGDIFSNREGKLPGKSGRTWREADINYTSGFRNSDRILYSSDWLIYKTTDAYQTFTKIRSSSMGVCPKILKKCRRDSDCLAGCVCGPNGFCGS
MSLSYLTEEKLTIVGAAGMIGSNMAQTAAMMRLTPNLCLYDPFAVGLEGVAEEIRHCGFEGLNLTFTSDIKEALTDAKYIVSSGGAPRKEGMTREDLLKGNAEIAAQLGKDIKSYCPDCKHVIIIFNPADITGLVTLIYSGLKPSQVTTLAGLDSTRLQSELAKHFGIKQSLVTNTRTYGGHGEQMAVFASTAKVNGTPLTDLIGTDKLTNEQWAELKQRVVKGGANIIKLRGRSSFQSPSYVSIEMIRAAMGGEAFRWPAGCYVNVPGFEHIMMAMETTITKDGVKHSDINQLGNEAERAALKESYSHLAKLRDEVIAMGIIPAIADWKTVNPNEGHHHHHH
